From US20150010574A1

What was measured:
Assay in all cases: cell-based or functional assay
[1] = molecular target: human IGF-1R (human) (UniProt P08069)
[2] = molecular target: human IGF-2 (human) (UniProt P01344)
[3] = molecular target: human IGF-1 (human) (UniProt P05019)
Chain of human IGF-1 (human) (P05019 49-118): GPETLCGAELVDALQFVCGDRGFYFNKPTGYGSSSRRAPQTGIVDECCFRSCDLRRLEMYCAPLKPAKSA

Chain of human IGF-2 (human) (P01344 25-91 limits assumed): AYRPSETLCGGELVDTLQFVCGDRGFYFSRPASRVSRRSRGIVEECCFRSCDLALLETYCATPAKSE
Chain of human IGF-1R (human) (P08069 31-1367): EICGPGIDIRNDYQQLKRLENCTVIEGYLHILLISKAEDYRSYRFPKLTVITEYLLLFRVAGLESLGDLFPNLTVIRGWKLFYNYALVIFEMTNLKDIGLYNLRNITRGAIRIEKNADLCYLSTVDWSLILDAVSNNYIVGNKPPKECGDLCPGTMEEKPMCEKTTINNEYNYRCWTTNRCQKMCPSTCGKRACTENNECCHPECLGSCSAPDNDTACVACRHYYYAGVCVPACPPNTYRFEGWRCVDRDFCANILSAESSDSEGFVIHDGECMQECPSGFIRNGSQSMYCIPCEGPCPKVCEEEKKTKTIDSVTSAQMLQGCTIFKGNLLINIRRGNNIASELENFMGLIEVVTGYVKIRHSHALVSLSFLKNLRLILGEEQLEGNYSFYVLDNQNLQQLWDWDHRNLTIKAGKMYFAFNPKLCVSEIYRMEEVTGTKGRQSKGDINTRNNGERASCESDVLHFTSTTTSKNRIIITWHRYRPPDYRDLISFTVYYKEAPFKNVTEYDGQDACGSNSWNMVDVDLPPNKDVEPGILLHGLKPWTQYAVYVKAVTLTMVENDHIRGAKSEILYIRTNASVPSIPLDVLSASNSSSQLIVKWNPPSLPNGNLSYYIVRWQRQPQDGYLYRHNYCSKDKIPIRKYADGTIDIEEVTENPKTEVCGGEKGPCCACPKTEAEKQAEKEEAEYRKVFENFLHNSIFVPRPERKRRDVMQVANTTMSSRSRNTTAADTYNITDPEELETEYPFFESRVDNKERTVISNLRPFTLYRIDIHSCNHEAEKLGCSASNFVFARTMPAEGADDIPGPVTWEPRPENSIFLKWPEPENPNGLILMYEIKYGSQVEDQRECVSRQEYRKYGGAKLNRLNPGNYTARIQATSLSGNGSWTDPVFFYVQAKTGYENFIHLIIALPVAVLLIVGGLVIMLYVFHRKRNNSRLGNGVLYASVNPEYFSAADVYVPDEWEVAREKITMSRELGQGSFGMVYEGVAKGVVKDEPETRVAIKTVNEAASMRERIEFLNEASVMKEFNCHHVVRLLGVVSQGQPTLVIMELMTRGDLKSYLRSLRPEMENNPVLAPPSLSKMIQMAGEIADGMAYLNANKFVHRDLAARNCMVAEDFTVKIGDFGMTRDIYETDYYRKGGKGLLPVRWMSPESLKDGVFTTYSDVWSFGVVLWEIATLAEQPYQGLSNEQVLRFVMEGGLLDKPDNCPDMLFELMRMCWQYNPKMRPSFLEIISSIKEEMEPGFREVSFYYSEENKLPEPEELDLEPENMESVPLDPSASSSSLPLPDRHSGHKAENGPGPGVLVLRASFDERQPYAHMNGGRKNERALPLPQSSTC

% Remaining Phosphorylation at 15 µg/mL (100 nM) Inhibitor; IGF-1 (20 ng/mL) induced IGF-1R phosphorylation [1] | % Remaining Phosphorylation at 15 µg/mL (100 nM) Inhibitor; IGF-2 (100 ng/mL) induced IGF-1R phosphorylation [1] | % Remaining Phosphorylation at 15 µg/mL (100 nM) Inhibitor; human serum (20%) induced IGF-1R phosphorylation [1] | IC50 of IGF-1 (20 ng/mL) induced IGF-1R phosphorylation, cell based ELISA [1] | IC50 of IGF-2 (100 ng/mL) induced IGF-1R phosphorylation, cell based ELISA [1] | IC50 of human serum (20%) induced IGF-1R phosphorylation, cell based ELISA [1] | % Remaining Phosphorylation at 15 µg/mL (100 nM) Inhibitor; IGF-2 (100 ng/mL) induced IGF-1R phosphorylation [2] | % Remaining Phosphorylation at 15 µg/mL (100 nM) Inhibitor; IGF-2 (100 ng/mL) induced IR-A phosphorylation [2] | IC50 of IGF-2 (100 ng/mL) induced IGF-1R phosphorylation, cell based ELISA [2] | IC50 of IGF-2 (100 ng/mL) induced IR-A phosphorylation, cell based ELISA [2] | % Remaining Phosphorylation at 15 µg/mL (100 nM) Inhibitor; IGF-1 (20 ng/mL) induced IGF-1R phosphorylation [3] | Substance
35% | 76% | 120% | 1.16 µg/mL | > 15 µg/mL | > 15 µg/mL | – | – | – | – | – | IGF-1R antibody αIR-3 (Calbiochem, No. GR11L)
– | – | – | – | – | – | 108% | 109% | > 15 µg/mL | > 15 µg/mL | 108% | Control IgG (antibody)
